Test results from patent publication WO2018019380A1 (dated 2018).

T1: CEACAM1 (as used for the Kd / Kon / Koff values) (human, UniProt P13688 35-428, limits assumed)
T1 sequence (looked up): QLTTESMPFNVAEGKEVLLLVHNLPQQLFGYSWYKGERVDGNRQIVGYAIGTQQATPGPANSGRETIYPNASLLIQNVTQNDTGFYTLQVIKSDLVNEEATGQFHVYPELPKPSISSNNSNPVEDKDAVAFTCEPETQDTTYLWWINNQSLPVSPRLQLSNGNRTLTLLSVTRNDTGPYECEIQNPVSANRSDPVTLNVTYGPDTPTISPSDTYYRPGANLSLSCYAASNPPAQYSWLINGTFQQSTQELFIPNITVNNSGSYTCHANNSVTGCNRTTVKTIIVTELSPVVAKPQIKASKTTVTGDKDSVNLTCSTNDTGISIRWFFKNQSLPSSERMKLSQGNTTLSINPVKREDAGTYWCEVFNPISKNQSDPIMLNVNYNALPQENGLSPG


Target: T1, CEACAM1 (as used for the Kd / Kon / …)
Assay: method not stated

Row | Binder | Kd
1 | Anti-human CEACAM1 antibody (Clone 18-20) (antibody, V domains shown, Mouse monoclonal antibody from hybridoma 18-20; also called Antikörper 18-20; antibody 18-20) VH: KPGETVKISCKASGYTFTVYGMNWVKQAPGKDLKWMGWINTYTGEPTYADDFKGRFAFSLETSASTAYLQINNLKNEDMATYFCARKAFYRYDGGMDYWGQGTSVTVSS VL: SSLSASLGGKVTITCKASQDINKFLAWYQHKPGKGPRLLIHYTSTLQPGIPSRFSGSGSGRDYSFSISNLEPEDIATYYCLQYDNLYTFGGGTKLEIK | 26 nM
2 | Anti-human CEACAM1 antibody (Clone B3-17) (antibody, V domains shown, Mouse monoclonal antibody from hybridoma B3-17; also called Antikörper B3-17; antibody B3-17) VH: GPELVKPGTSVKMSCKASGYTFTTYVMHWVQQKPGQGLDWIGFFNPYNDGTKYNEKFKGKATLTSDKSSSTAYMELSSLTSEDSAVYYCARWAYDGSYAYWGQGTTLTVSS VL: SYLSVFLGGRVTITCKASDHINNWLAWYQQKPGNAPRLLISGATSLETGVPSRFSGSGSGKDYTLSIISLQTEDVATYYCQQYWRTPFTFGSGTKLEIK | 10 nM
3 | Anti-human CEACAM1 antibody (Clone 6G5J) (antibody, V domains shown, Mouse monoclonal antibody from hybridoma 6G5J; also called Antikörper 6G5J; antibody 6G5J) VH: KPGETVKISCKTSGYIFRNYGMKWVKQAPGKGLKWMGWINTYTGEPTYADDFKGRFAFSLETSASTAYLQINNLKNEDMATYFCARRGMITTSNYALDNWGQGTSVTVSS VL: SSLSASLGDRVTISCRASQDISNYLNWYQQKPDGTIKLLIYYTSKLHSGVPSRFSGSGSGTDYSLTISNLDQEDIATYFCQQGNTLPWTFGGGTKLEIK | 23 nM
